Tests used:
RANKL [1] = target: T1, RANKL (Mus musculus, UniProt O35235); experiment: Trimer formation in transfected HEK 293FT cells (native gel, Western blot); type: cell-based; details: co-transfection with WT RANKL-FLAG
T1 construct: expressed in transfected cells; host or cells: HEK 293FT
T1 sequence (O35235 1-316): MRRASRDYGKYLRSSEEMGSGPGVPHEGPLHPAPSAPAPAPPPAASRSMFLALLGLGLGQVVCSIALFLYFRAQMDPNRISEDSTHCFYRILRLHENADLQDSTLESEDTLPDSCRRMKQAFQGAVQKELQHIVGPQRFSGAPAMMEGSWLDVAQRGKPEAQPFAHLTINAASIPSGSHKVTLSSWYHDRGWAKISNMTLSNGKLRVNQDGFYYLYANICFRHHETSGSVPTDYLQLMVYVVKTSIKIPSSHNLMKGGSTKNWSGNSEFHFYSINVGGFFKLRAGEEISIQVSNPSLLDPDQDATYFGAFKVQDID
Description: (§1) Similar to the analysis of recombinant RANKL proteins, trimer formation was detected only in WT RANKL-Myc but not in RANKL^G278R-Myc.
(§2) HEK 293FT cells were transfected with 1 μg plasmid DNA using TransIt-293 transfection reagent (Mirus, Madison, Wis.). After 48 hours, transfected cells were harvested in PBS and the half quantity was diluted in equal volume of 2× Laemmli sample buffer, and analyzed in 12% acrylamide denatured gels. The remaining cells were lysed by sonication, centrifuged, and analyzed in 8% native acrylamide gels.

RANKL [2] = target: T2, RANKL (Mus musculus, UniProt O35235, G278R); experiment: as above; type: cell-based; details: HEK 293FT, RANKL^G278R-Myc
T2 construct: expressed in transfected cells; host or cells: HEK 293FT
T2 sequence (O35235 1-316 G278R): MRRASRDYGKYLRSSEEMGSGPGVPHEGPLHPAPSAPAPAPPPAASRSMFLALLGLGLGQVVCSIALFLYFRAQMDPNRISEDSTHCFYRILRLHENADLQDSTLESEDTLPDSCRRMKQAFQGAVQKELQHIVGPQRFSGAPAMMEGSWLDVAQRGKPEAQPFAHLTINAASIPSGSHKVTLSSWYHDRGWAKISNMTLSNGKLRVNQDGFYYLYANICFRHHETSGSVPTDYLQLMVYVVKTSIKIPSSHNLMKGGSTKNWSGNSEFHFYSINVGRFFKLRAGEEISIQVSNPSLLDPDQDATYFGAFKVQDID
Description: as §1, §2

GST-RANKL [3] = target: T3, GST-RANKL (Mus musculus, UniProt O35235); experiment: Ex vivo RANKL-induced osteoclast formation (BM cells, M-CSF + GST-RANKL, TRAP staining); type: cell-based
T3 construct: a cDNA encoding the core ectodomain of murine RANKL residues 158-316, with or without the G278R substitution; made in house; host or cells: Escherichia coli BL21
T3 sequence (O35235 158-316): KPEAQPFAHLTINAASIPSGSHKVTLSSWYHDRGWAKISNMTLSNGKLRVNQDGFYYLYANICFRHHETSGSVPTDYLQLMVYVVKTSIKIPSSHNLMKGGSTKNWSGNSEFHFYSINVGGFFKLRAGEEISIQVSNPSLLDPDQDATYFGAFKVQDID
Description: (§3) Instead, WT GST-RANKL (ratio 1:0) induced formation of TRAP+ giant osteoclasts (FIGS. 5A-5C). […] Incubation of WT GST-RANKL with GST at similar concentrations (12.5-100 ng/ml), didn't affect the formation of osteoclasts.
(§4) A novel small molecule inhibitor of TNF trimerization, named SPD304, has been recently reported^[35] to interact with glycine 122 (G122) that corresponds to G278 in RANKL.
(§5) BM cells were collected after flushing out of femurs and tibiae, subjected to gradient purification using FICOLL-PAQUE™ (GE Healthcare), plated in 24-well plates at a density of 5×10^5 cells per well and cultured in αMEM medium (GIBCO) containing 10% fetal bovine serum supplemented with 40 ng/ml RANKL (R&D Systems) and 25 ng/ml M-CSF (R&D Systems) for 5 days. Similarly, splenocytes were collected, plated in 24-well plates at a density of 10^6 cells per well and cultured in the presence of recombinant RANKL and M-CSF for 6 days. GST-RANKL^G278R was pre-incubated with WT GST-RANKL at room temperature for 20 min, prior to the stimulation of the BM cell cultures, in order to enable exchange of the RANKL variants and heterotrimer formation. Small molecule SPD304 (Sigma-Aldrich) was pre-incubated with 80 ng/ml GST-RANKL at various concentrations from 0.25 to 2 μM in αMEM medium for 1 hour at room temperature and then added to culture. Osteoclasts were stained for TRAP activity.

GST-RANKL [4] = experiment: as above; type: cell-based, mouse; details: ratio WT GST-RANKL:GST-RANKL^G278R 0:1
Description: as §3, §4, §5

RANK-Fc = target: T4, RANK-Fc (Mus musculus, UniProt O35305); experiment: Binding assay of GST-RANKL^G278R to RANK; details: immobilized protein, serial dilutions of murine RANK-Fc
T4 construct: purchased R&D systems
Description: RANK-Fc interacted with GST-RANKL in a dose-dependent manner, but not with GST-RANKL^G278R or GST.
Nunc plates were coated with recombinant WT GST-RANKL, GST-RANKL^G278R or GST at 3 μg/ml and after blocking with 1% BSA, were incubated with increasing amount of recombinant mouse RANK-Fc (R&D systems). RANK binding was detected with a phycoerythrin (PE) conjugated goat anti-human IgG (Fc) (SouthernBiotech, Birmingham, USA) that was measured (539-573 nm) with the fluorescent plate reader TECAN infinite M200.

T4 sequence (O35305 with tags, fused parts or gaps limits assumed): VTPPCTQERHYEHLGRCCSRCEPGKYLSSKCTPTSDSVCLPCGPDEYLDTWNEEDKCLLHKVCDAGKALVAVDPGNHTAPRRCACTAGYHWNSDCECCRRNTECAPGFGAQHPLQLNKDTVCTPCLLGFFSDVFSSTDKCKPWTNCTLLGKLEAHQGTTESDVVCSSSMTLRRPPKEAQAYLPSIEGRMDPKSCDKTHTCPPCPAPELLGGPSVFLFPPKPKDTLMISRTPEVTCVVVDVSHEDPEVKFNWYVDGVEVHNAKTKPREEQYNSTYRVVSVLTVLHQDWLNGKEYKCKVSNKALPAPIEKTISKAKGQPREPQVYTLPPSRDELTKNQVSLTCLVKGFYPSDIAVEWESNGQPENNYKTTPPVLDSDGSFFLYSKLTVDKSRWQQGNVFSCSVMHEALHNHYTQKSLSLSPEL

B1: RANKL^G278R: murine RANKL with glycine to arginine substitution at residue 278; soluble or full-length Myc-tagged (protein, UniProt O35235 139-316, looked up, variant G278R)
Tumor necrosis factor ligand …: FSGAPAMMEGSWLDVAQRGKPEAQPFAHLTINAASIPSGSHKVTLSSWYHDRGWAKISNMTLSNGKLRVNQDGFYYLYANICFRHHETSGSVPTDYLQLMVYVVKTSIKIPSSHNLMKGGSTKNWSGNSEFHFYSINVGRFFKLRAGEEISIQVSNPSLLDPDQDATYFGAFKVQDID
modifications: Myc tag
notes: murine RANKL with glycine to arginine substitution at residue 278; soluble or full-length Myc-tagged
B1 was tested, and the “effect on WT RANKL trimerization” value (RANKL [1]) was “inhibits WT RANKL trimerization” and the “own trimer formation in eukaryotic cells” value (RANKL [2]) was “fails to form trimers”.

B2: GST-RANKL^G278R: murine RANKL ectodomain residues 158-316 with G278R substitution, fused to GST (protein)
chain: KPEAQPFAHLTINAASIPSGSHKVTLSSWYHDRGWAKISNMTLSNGKLRVNQDGFYYLYANICFRHHETSGSVPTDYLQLMVYVVKTSIKIPSSHNLMKGGSTKNWSGNSEFHFYSINVGRFFKLRAGEEISIQVSNPSLLDPDQDATYFGAFKVQDID
In the case of B2, the “formation of TRAP+ giant multinucleated cells” value (GST-RANKL [3]; ratio WT GST-RANKL:GST-RANKL^G278R 1:1) is reported as “completely impaired the formation of TRAP+ giant multinucleated cells”, the “formation of multinucleated TRAP+ osteoclasts” value (GST-RANKL [3]; ratio WT GST-RANKL:GST-RANKL^G278R 1:2 (50 ng/ml GST-RANKL, 100 ng/ml variant)) is reported as “Complete inhibition in the formation of multinucleated TRAP+ osteoclasts” and the “formation of TRAP+ giant multinucleated cells” value (GST-RANKL [3]; ratio WT GST-RANKL:GST-RANKL^G278R 2:1) is reported as “a small number of TRAP+ giant multinucleated cells was formed”. For the same molecule, the “formation of giant osteoclast-like cells” value (GST-RANKL [3]; ratio WT GST-RANKL:GST-RANKL^G278R 4:1 or higher) was “Formation of giant osteoclast-like-cells appeared”, the “induction of TRAP+ cells by the variant alone” value (GST-RANKL [4]) was “failed to induce formation of TRAP+ cells” and the “binding affinity for RANK-Fc” value (RANK-Fc) was “completely abolished”.

From US20140165223A1, “TNF SUPERFAMILY TRIMERIZATION INHIBITORS” (B.S.R.C. "Alexander Fleming", priority 2011, published 2014)
